Assay [1] has as its target feline CD80, surface expressed on feCD80/pSI transfected COS-7 cells (feline). Description: competitive cell-cell adhesion assay at 5x10^5 cells; huCTLA-4Ig pre-incubated with CD80 COS-7 cells, then added to CD28 COS-7 monolayer.
In assay [2] the target is feline CD28, surface expressed on CD28-pSI transfected COS-7 cells (feline). As to the kind of experiment: cell-cell adhesion assay; calcein-labelled CD80 COS-7 cells on CD28 COS-7 monolayer; microplate fluorimeter.

Values joined by “and” are separate entries in the source; they are usually repeats but may differ in a detail not shown here. Equal values may be shown once.

“huCTLA-4Ig fusion protein (from UniProt P16410 38-161) (Fc fusion)”: in assay [1], the fold residual fluorescence against wells inhibited with soluble CD80 (close to the mock transfected control) is 2 fold and 3 fold.
For the substance “feline CD80, surface expressed on feCD80/pSI transfected COS-7 cells (ligand)”, the fold fluorescence against wells with mock transfected adherent cells, at 1x10^6 cells in assay [2] is 5 fold.

The values are drawn from EP1073741B1.
